Experimental data as given in patent US20240228596A1 (VIB VZW, published 2024).

Tests used:
[1] = molecular target: T1, SARS-COV-2 Wuhan WT Spike_del18 on VSV-delG pseudotyped particles (SARS-COV-2, UniProt P0DTC2 14-1255); assay: cell-based or functional assay
[2] = molecular target: RBD of Rp3 sarbecovirus displayed on yeast cells (Rp3 sarbecovirus, UniProt Q3I5J5 322-503); assay: flow cytometry, yeast-displayed RBD (data not shown)
[3] = molecular target: T2, RBD of HKU3 sarbecovirus displayed on yeast cells (HKU3 sarbecovirus, UniProt Q3LZX1 322-504); assay: as above
[4] = molecular target: T3, RBD of SARS-COV-1 displayed on yeast cells (SARS-COV-1, UniProt P59594 318-517); assay: as above
SARS-COV-2 RBD-SD1 = SARS-COV-2 RBD-SD1 (SARS-COV-2, UniProt P0DTC2 319-591); assay: periplasmic extract ELISA
[5] = molecular target: T2, RBD of HKU3 sarbecovirus displayed on …; assay: flow cytometry, yeast-displayed RBD
[6] = molecular target: T3, RBD of SARS-COV-1 displayed on yeast …; assay: flow cytometry, yeast-displayed RBD
[7] = molecular target: T1, SARS-COV-2 Wuhan WT Spike_del18 on …; assay: cell-based or functional assay; remark: listed apart in the source
[8] = molecular target: SARS-COV-1 spike protein on VSV-delG pseudotyped particles (SARS-COV-1, UniProt P59594 14-1255); assay: cell-based or functional assay
[9] = molecular target: T1, SARS-COV-2 Wuhan WT Spike_del18 on …; assay: cell-based or functional assay; remark: listed apart in the source

Binder	binding result [3]	binding result (SARS-COV-2 RBD-SD1)	neutralization IC50 [7]	IC50 Mean VSV-dG-spike SARS-COV-2 [9]	other results
VHH3.83 (VHH) VHH: QVQLQESGGGLVQPGDSLRLSCVLSGGVFTSYAMGWFRQAPGKEREFLAAITFNSDATYYADSVKGRFTISRDNAKNTAYLQMNSLKPNDTAVYSCAAGGNHYNPQYYHDYDKYDHWGQGTQVTVSS	binds	–	–	–	IC50 ug/ml, pseudoneutralization assay [1]: 0.262 µg/mL; binding result [2]: binds; binding result [4]: binds
VHH4.2XAS43 (VHH) VHH: QVQLQESGGGLVQAGDSLTLSCAASGRTGSNYAMGWFRQAPGKEREFLAAITFNSDATYYADSVKGRFTISRDNAKNTAYLQMNSLKPDDTAVYSCAAGGNHYNPQYYHDYDKYDHWGQGTQVTVSS	–	binds	–	–	–
VHH4.1XAS51 (VHH) VHH: QVQLQESGGGLVQAGGSLRLSCTASTPTIKNYAMGWFRQAPGKEREFLAAITFNSDATYYADSVKGRFTISRDNAKNTAYLQMNSLKPDDTAVYSCAAGGNHYNPQYYHDYDKYDYWGQGTQVTVSS	–	binds	–	–	–
VHH4.2XAS31 (VHH) VHH: QVQLQESGGGFVQAGGSLRLSCATSGHRFSDYAVAWFRQTPGKEREFLAAITFNSDATYYADSVKGRFTISRDNAKNTAYLQMNSLKPDDTAVYSCAAGGNHYNPQYYHDYDKYDHWGQGTQVTVSS	–	binds	–	–	–
VHH4.2XAS58 (VHH) VHH: QVQLQESGGGLVQSGGSLRLSCAGSGFPLEAFSIGWFRQAPGKEREFLAAITFNSDATYYADSVKGRFTISRDNAKNTAYLQMNSLKPDDTAVYSCAAGGNHYNPQYYHDYDKYDHWGQGTQVTVFS	–	binds	–	–	–
VHH3.89 (VHH) VHH: QVQLQESGGGLVQPGGSLRLSCAASGFTLDYYAIGWFREVPGKEREGLSRIDSSDGSTYYADSVKGRFTISRDNTKNIVYLQMNNLKPEDTAVYYCATDPIIQGRNWYWTGWGQGTQVTVSS	–	–	–	–	binding result [5]: binds; binding result [6]: binds
VHH3.42 (VHH) VHH: QVQLQESGGGLVQPGGSLRLSCAASGSAVSINDMGWYRQPPGKQRELVATITKTGSTNYADSVKGRFTISRDNAKNAVYLEMNSLKPEDTATYYCNAWLPYGMGPDYYGMELWGKGTQVTVSS	binds	–	54.8 nM	0.8 µg/mL	IC50 Mean VSV-dG-spike SARS-COV-1 [8]: 0.19 µg/mL
VHH3.117 (VHH) VHH: QVQLQESGGGLVQPGGSLRLSCAASGKAVSISDMGWYRQPPGKQRELVATITKTGSTNYADSAQGRFTISRDNTKSAVYLEMKSLKPEDTAVYYCNAWLPYGMGPDYYGMELWGKGTQVTVSS	–	–	13.7 nM	0.2 µg/mL	binding result [5]: binds; IC50 ug/ml, pseudoneutralization assay [1]: 0.539 µg/mL; IC50 Mean VSV-dG-spike SARS-COV-1 [8]: 0.016 µg/mL
VHH3.92 (VHH) VHH: QVQLQESGGGLVQPGGSLRLSCAASGKAVSISDMGWYRQPPGKQRELVATITKTGNTNYADSAQGRFTISRDNAKSAVYLEMASLKPEDTAVYYCNAWLPYGMGPDYYGMELWGKGTQVTVSS	binds	–	13.6 nM	0.21 µg/mL	–
